Reference: patent US9803013B2, “Biological materials and uses thereof” (BioInvent International AB, priority 2005, dated 2017)

T1: mouse FcγRIV (Mus musculus, UniProt A0A0B4J1G0)
T1 construct: made in house; host or cells: HEK293E cells (transient)
T1 sequence (A0A0B4J1G0 21-249): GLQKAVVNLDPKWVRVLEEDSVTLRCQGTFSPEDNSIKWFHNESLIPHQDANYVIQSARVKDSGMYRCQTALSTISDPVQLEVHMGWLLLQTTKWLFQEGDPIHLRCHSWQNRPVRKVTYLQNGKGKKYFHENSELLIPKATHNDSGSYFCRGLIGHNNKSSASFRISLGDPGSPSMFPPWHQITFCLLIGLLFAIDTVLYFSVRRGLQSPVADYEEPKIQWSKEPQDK

B1: C11: fully human IgG1 antibody specific for surface IgM; VH and VL sequences of FIG. 11 (SEQ ID NOs. 10 and 12) (antibody, listed as Homo sapiens, V domains shown)
VH: EVQLLESGGGLVQPGGSLRLSCAASGFTFGSYEMNWVRQAPGKGLEWVSVIYSGGSTYYADSVEGRFTISRDNSKNTLYLQMNSLRAEDTAVYYCARDTNPYYYYGMDVWGQGTLVTVSS
VL: QSVLTQPPSASGTPGQRVTISCSGSSSNIGNNAVNWYQQLPGTAPKLLIYRNNQRPSGVPDRFSGSKSGTSASLAISGLRSEDEADYYCQSYDSSLNGQVFGGGTKLTVLG
B2: B11: fully human IgG1 antibody specific for ICAM-1; VH and VL sequences of FIG. 10 (SEQ ID NOs. 6 and 8) (antibody, listed as Homo sapiens, V domains shown)
VH: EVQLLESGGGLVQPGGSLRLSCAASGFTFSNAWMSWVRQAPGKGLEWVAFIWYDGSNKYYADSVKGRFTISRDNSKNTLYLQMNSLRAEDTAVYYCARYSGWYFDYWGQGTLVTVSS
VL: QSVLTQPPSASGTPGQRVTISCTGSSSNIGAGYDVHWYQQLPGTAPKLLIYDNNNRPSGVPDRFSGSKSGTSASLAISGLRSEDEADYYCQSYDSSLSAWLFGGGTKLTVLG

Legend:
Jeko-1 = assay: Apoptosis induction by cross-linked IgG (Annexin V/PI); format: cell-based, human; conditions: viable cells after 6 hour incubation, crosslinked, compared to control FITC-8 IgG1
Procedure: (§1) 2×10^5 B lymphoma cells (Raji or Ramos) or Jurkat T cells were incubated with serially diluted and detoxified scFv's in culture medium for 1 h on ice.
(§2) When whole IgGs were used for apoptosis induction, cross-linking reagent was replaced by goat Fab′2 anti-human Fc γ antibody (Jackson ImmunoResearch) with minimal cross-reactivity with non-IgG antibody isotypes (to avoid unspecific cross-linking of endogenous B lymphoma associated surface immunoglobulins) and incubated, as described above, for 6 h.
(§3) Apoptotic cells were, unless otherwise stated, detected by combined staining with Annexin V Alexa Fluor 488 (AV) and Propidium Iodide (PI) (both from Molecular Probes, Invitrogen) and subsequent flow-cytometric analysis, Cells were defined as viable (AV−/PI−), early apoptotic (AV+/PI−) or late apoptotic/necrotic (AV+/PI+). AV and PI signals were recorded in the FL1 and FL2 or FL3 channels (as indicated in the text), respectively, using a FACSCalibur instrument (BD Biosciences).
(§4) • ^aApoptosis Induction; determined by percentage of viable cells after 6 hour incubation with any of the human antibodies, crosslinked with Goat anti-Human (gamma) Fc specific antibody; −, viability not affected; +, 95-80%; ++, 79-60%; +++, 59-40% viable cells compared to control (human FITC-8 IgG1). […] The cell line dependent MFI value of control human FITC-8 IgG antibody was subtracted from the MFI of each human antibody.

Granta 519 = assay: as above; format: cell-based, human; conditions: viable cells after 6 hour incubation, crosslinked, compared to control FITC-8 IgG1
Procedure: as §1, §2, §3, §4

CL-01 = assay: as above; format: cell-based, human; conditions: viable cells after 6 hour incubation, crosslinked, compared to control FITC-8 IgG1
Procedure: as §1, §2, §3, §4

RL = assay: as above; format: cell-based, human; conditions: viable cells after 6 hour incubation, crosslinked, compared to control FITC-8 IgG1
Procedure: as §1, §2, §3, §4

BJAB = assay: as above; format: cell-based, human; conditions: viable cells after 6 hour incubation, crosslinked, compared to control FITC-8 IgG1
Procedure: as §1, §2, §3, §4

Reh/KM-3 = assay: as above; format: cell-based, human; conditions: viable cells after 6 hour incubation, crosslinked, compared to control FITC-8 IgG1
Procedure: as §1, §2, §3, §4

SC-1 = assay: as above; format: cell-based, human; conditions: viable cells after 6 hour incubation, crosslinked, compared to control FITC-8 IgG1
Procedure: as §1, §2, §3, §4

MC/CAR = assay: as above; format: cell-based, human; conditions: viable cells after 6 hour incubation, crosslinked, compared to control FITC-8 IgG1
Procedure: as §1, §2, §3, §4

SP-53 = assay: as above; format: cell-based, human; conditions: viable cells after 6 hour incubation, crosslinked, compared to control FITC-8 IgG1
Procedure: as §1, §2, §3, §4

human target tumor cells = assay: ADCC with human effector NK cells; format: cell-based
Procedure: NK cells were isolated from purified PBMCs using positive or negative NK cell-isolation kits (Miltenyi Biotec). Target cells were harvested and incubated in medium with or without the respective antibodies (2 μg/mL) for 60 min on ice before. NK cells were washed, diluted in ADCC medium and dispensed together with the respective antibody-coated target cells at varying effector/target cell ratios. All experiments were performed in triplicate. After incubation, TO-PRO-3 dye and counting beads (Invitrogen) were added and cells were analyzed for membrane permeabilization using flow cytometry.
Buffy coats from human donors (ordered through Blodcentralen, Lund) were used to isolate peripheral blood mononuclear cells (PBMCs), and subsequently natural killer (NK) cells. Briefly, peripheral blood components were separated using Ficoll-Paque PLUS (Amersham Biosciences, Sweden) in Leucosep tubes (Greiner Bio-One). […] The purity of the obtained NK cell fractions was >75% as determined by flow cytometry after staining with α-CD56 antibodies (BD Biosciences). […] After incubation, TO-PRO-3 dye and counting beads (Invitrogen) were added and cells were analyzed for membrane permeabilization using flow cytometry.

mouse FcγRIV = biological target: T1, mouse FcγRIV; assay: BiaCore analysis of BI-505 Fc-variant binding to FcγR
Procedure: (FIG. 20B) BiaCore analysis of BI-505 Fc-variant antibodies binding to mouse FcγRIV.
His-tagged human FcγRIIIa and mouse FcγRIV were transiently expressed in HEK293E cells, purified using Ni-NTA chromatography, and characterized by SDS-PAGE and/or Biacore. Surface plasmon resonance (SPR) measurements were performed using a Biacore 3000 instrument. Goat F(ab)′2 α-human-F(ab)′2 fragments (Jackson Laboratories) were immobilized with a CM-5 chip using a standard amine coupling protocol. BI-505 (IgG1) and IgG4 or IgG1 297Q variants of BI-505 were diluted to 15 and 60 μg/mL respectively and added to the surface at 10 μL/min for 3 min. His-tagged human FcγRIIIa or mouse FcγRIV was pre-incubated with an α-HIS antibody (R&D Systems) at a 2:1 molar ratio before addition to the chip surface, 30 μL/min, for 1 min. After each cycle the surface was regenerated twice with glycine buffer pH 1.7.

RPMI-8226 myeloma cells = assay: NK-cell deficient NOD/Shi-scid/IL-2Rγ−/− mouse model; format: in vivo; conditions: RPMI-8226 grafted to NOD/Shi-scid/IL-2Rγ−/− mice
Procedure: (FIG. 20G) Tumor growth in BI-505 or control antibody treated NK-cell deficient NOD/Shi-scid/IL-2Rγ^−/− mice transplanted with RPMI-8226 myeloma cells. ***p<0.001.
Six-eight weeks-old female NOD/Shi-scid IL-2Rγ^−/− mice were obtained from Taconic, Denmark. Five million (5×10^6) RPMI-8226 or U266 tumor cells in 200 μL of RPMI 1640 were intravenously injected into the caudal vein (day 0). The tumor cell injection was performed 2 hr after whole body irradiation of mice (1.5 Gy, Cesium 137, IBL 637). At day 4, mice were randomized into 6 groups and treatment was initiated according to the schedule below.

Row | Molecule | Apoptosis Induction (Jeko-1) | Apoptosis Induction (Granta 519) | Apoptosis Induction (CL-01) | Apoptosis Induction (RL) | Apoptosis Induction (BJAB) | Apoptosis Induction (Reh/KM-3) | Apoptosis Induction (SC-1) | Apoptosis Induction (MC/CAR) | Apoptosis Induction (SP-53) | ADCC (human target tumor cells) | binding to mouse FcγRIV, order (mouse FcγRIV) | antitumor activity (RPMI-8226 myeloma cells)
1 | B1 | ++ (79-60%) | + (95-80%) | + (95-80%) | − | + (95-80%) | − | − | − | − |  |  | 
2 | B2 | + (95-80%) | + (95-80%) | ++ (79-60%) | − | + (95-80%) | − | − | + (95-80%) | − | conferred cytotoxicity in an Fc-dependent manner | IgG1 N297Q<IgG4<IgG1 | significant antitumor activity
